Measurements from paper PMC5399559 (2017).

Tests used:
[1] = target: taxol-stabilized microtubules (MTs); assay: 100 mM KCl
[2] = target: taxol-stabilized microtubules (MTs); assay: 200 mM KCl
[3] = target: taxol-stabilized microtubules (MTs); assay: 30 mM KCl

Sequence of taxol-stabilized microtubules (MTs) (chain, as listed by the source, chain 1 of 2): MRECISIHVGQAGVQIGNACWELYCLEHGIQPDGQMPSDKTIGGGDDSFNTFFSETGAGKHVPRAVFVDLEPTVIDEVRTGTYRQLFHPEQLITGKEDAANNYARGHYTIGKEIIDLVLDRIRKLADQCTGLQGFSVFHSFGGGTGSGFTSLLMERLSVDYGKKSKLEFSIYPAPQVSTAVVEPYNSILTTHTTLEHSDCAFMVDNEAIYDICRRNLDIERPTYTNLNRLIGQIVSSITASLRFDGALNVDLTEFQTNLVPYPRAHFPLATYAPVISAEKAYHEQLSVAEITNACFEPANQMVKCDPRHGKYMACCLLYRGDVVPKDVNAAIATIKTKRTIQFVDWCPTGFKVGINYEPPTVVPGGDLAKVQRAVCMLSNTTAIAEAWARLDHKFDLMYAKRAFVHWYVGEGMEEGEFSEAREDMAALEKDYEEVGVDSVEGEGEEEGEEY
Sequence of taxol-stabilized microtubules (MTs) (chain, as listed by the source, chain 2 of 2): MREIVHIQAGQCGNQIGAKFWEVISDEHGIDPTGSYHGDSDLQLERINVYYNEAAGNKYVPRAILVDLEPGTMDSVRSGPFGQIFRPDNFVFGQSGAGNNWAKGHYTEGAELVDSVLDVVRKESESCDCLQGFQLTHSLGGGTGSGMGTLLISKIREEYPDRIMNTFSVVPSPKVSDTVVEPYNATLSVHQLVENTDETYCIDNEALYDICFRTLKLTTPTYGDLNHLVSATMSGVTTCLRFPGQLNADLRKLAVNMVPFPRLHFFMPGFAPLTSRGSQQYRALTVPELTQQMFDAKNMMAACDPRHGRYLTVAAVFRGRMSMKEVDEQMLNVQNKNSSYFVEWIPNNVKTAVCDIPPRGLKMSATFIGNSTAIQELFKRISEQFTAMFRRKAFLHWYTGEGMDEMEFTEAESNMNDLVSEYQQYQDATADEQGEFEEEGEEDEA

Kd [1]: 770 nM
Kd [2]: 3010 nM
Kd [3]: 340 nM
B1: MBP-Kif18A^tail-His6 (tail of Xl_Kif18A, aa 846-953) (domain or fragment)
chain: PSYMAMTSAAERKRKLLSLAGNSAVKEDSVPLPTAKRVRQDIALDCKALRVQRVAAGTTRSKDNCARRRLPKSVSEGALGVKTKPFSFQGSAQLLFQGGKKKAALKDP
